{"source": "patent US5376632A", "about": "“Cyclodextrin based erythropoietin formulation” (priority 1992, dated 1994)", "key": {"[1]": {"assay": "Irritation at the site of injection and clinical safety in healthy volunteers (Example 8)", "format": "in vivo, human (healthy male volunteers)", "details": "s.c.", "description": "Bioavailability of erythropoietin after subcutaneous administration of erythropoietin in a hydroxypropyl-β-cyclodextrin formulation in comparison with formulations using human serum albumin in healthy volunteers was assessed in the following study.\nSix healthy male volunteers with ages ranging between 30 and 40 (median 32) years, body weights between 69 and 80 (median 75) kg were administered subcutaneously in the upper arm 1 ml of an EPO solution (4000 I.U./ml) according to a randomized cross-over design. A four-week interval occured between the two tests. The two formulations of EPO were\nIrritation at the site of injection was scored before and 2, 4, and 24 hours after each administration. No oedema, erythema, itching or pain was reported in any of the volunteers at any time during the whole study. Both formulations are therefore equally well tolerated."}, "[2]": {"details": "-80° C.; cited from earlier work"}}, "data": [{"substance": "EPO: circulating glycoprotein hormone which induces an increase in red cell mass", "values": [{"measurement": "blood pressure or heart rate", "setting": "[1]", "value": "Nor did subcutaneous administration of EPO influence blood pressure or heart rate"}, {"measurement": "haematology and serum biochemistry", "setting": "[1]", "value": "No clinically important changes"}, {"measurement": "decrease in activity in aqueous solution", "setting": "[2]", "value": "substantial decrease in activity"}]}]}
